Values of other authors in paper PMC3078979.

Target: Gamide (amidated gastrin) (Homo sapiens) (UniProt P01350)
Assay: ultracentrifugation

- Kd: 6.4 µM
Substance: apo-transferrin (from UniProt P02787)
